Data from the nanobody polyreactivity screen of Harvey et al. (2022).

Test: yeast display, Sf9 membrane polyspecificity reagent, FACS + sequencing; frameworks hold sequencing errors
Outline: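 Nanobodies came from a synthetic yeast display library in Saccharomyces cerevisiae BJ5465, induced with galactose for 36–48 hours and stained for 1 hour at 4 °C with 10% biotinylated, detergent-solubilized Sf9 membrane reagent. Cells were enriched on streptavidin microbeads and then FACS-sorted, with low and high (top ~1%) gates set on anti-HA fluorescence for expression and streptavidin fluorescence for reagent binding. Each polyreactivity label reflects the gate a clone came from. Genes were amplified by colony PCR, sequenced by MiSeq 2 × 250 and filtered by CDR length.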

Sequence	polyreactivity (PSR sort gate)
QVQLVESGGGLVQAGGSLRLSCAASGSIFNGYAMGWYRQAPGKERELVAAISWSGVGTYYADSVKGRFTISRDNAKNTVYLQMNSLKPEDTAVYYCAAALPLVDFYDYWGQGTQVTVSS	low polyreactivity
QVQLVESGGGLVQAGGSLRLSCAASGSIFNGYVMGWYRQAPGKERELVAAISSGGRTYYADSVKGRFTISRDNAKNTVYLQMNSLKPEDTAVYYCNAYWLHYPSRVRKITAYDYWGQGTQVTVSS	low polyreactivity
QVQLVESGGGLVQAGGSLRLSCAASGSIFNINVMGWYRQAPGKEREMVAAINSGTSTYYADSVKGRFTISRDNAKNTVYLQMNSLKPEDTAVYYCAARNLFTGRRLFYYWGQGTQVTVSS	low polyreactivity
QVQLVESGGGLVQAGGSLRLSCAASGSIFNPNAMGWYRQAPGKETELVAAISWISGRTYYADSGKGRFTISRDNAKNTVYLQMISLKTEDTAVYYCAARYPLTQSKYYYWGQWTQVTVSS	high polyreactivity
QVQLVESGGGLVQAGGSLRLSCAASGSIFNPYTMGWYRQAPGKEREMVAAISASGGSTYYADSVKGRFTISRDNAKNTVYLQMNSLKPEDTAVYYCNVYRITRHSYNFGFDYWGQGTQVTVSS	low polyreactivity
QVQLVESGGGLVQAGGSLRLSCAASGSIFNRNAMGWYRQAPGKERELVAAISNSGARTYYADSVKGRFTISRDNAKNTVYLQMNSLKPEDTAVYYCNDVRRRSKLYNYWGQGTQVTVSS	high polyreactivity
QVQLVESGGGLVQAGGSLRLSCAASGSIFNRYAMGWFRQAPGKERELVAAISRRGAGTYYADSVKGRFTISRDNAKNTVYLQMNSLKPEDTAVYYCAATLSYTGSKRYDYWGQGTQVTVSS	high polyreactivity
QVQLVESGGGLVQAGGSLRLSCAASGSIFNRYAMGWYRQAPGKEREIVAAISTHTGTTYYADSVKGRFTISRDNAKNTVYLQMNSLKPEDTAVYYCDKRSRYGYGKSYDYWGQGTQVTVSS	high polyreactivity
QVQLVESGGGLVQAGGSLRLSCAASGSIFNRYTMGWYRQAPGKERELVAAISKRGGSTYYADSVKGRFTISRDNAKNTVYLQMNSLKPEDTAVYYCAAAGYHSGKGGGYWGQGTQVTVSS	high polyreactivity
QVQLVESGGGLVQAGGSLRLSCAASGSIFNSYAMGWSRQAPGKERELVAAISSGGGRTYYADSVKGRFTISRDNAKNTVYLQMNSLKPEDTAVYYCNARAVYRFDYWGQGTQVTVSS	high polyreactivity
QVQLVESGGGLVQAGGSLRLSCAASGSIFNTIALGWYRQAPGKESELVASISSDGGTNYADSLKGRFTISRDNAKNTVYLQMNRLKPEDTAVYACATTQEYSGQRTPGYDYWGQVTQVTVSS	low polyreactivity
QVQLVESGGGLVQAGGSLRLSCAASGSIFNTYAMGWYRQAPGKERELVAAISRSGDSTYYADSVKGRFTISRDNAKNTVYVQMNSLKPEDSAVYYCATGRTDHGYYYWGQGTQVTVSS	high polyreactivity
QVQLVESGGGLVQAGGSLRLSCAASGSIFNTYAMGWYRQAPGKERELVAAITWSGGSTYYADSVKGRFTISRDNAKNTVYLQRNSLKPEDTAVYDCAARQRRQSYWGQGTQVTVSS	high polyreactivity
QVQLVESGGGLVQAGGSLRLSCAASGSIFNVNAMGWYRQAPGKERELVAAISSGGNTNYADSVKGRFTFSRDNAKNTVYLQMNRLKPEDTAVYYCATGGYYSAIVYGGYDYWGQGTQVTVSS	low polyreactivity
QVQLVESGGGLVQAGGSLRLSCAASGSIFNWYAMGWYTQAPGKERELVAAISWRCGSTYYADSVKGRFTISRDNAKITVYLQMNSLKPEDTAVYYCAADGGADHMDYWGQGTQVTVSS	high polyreactivity
QVQLVESGGGLVQAGGSLRLSCAASGSIFNYNAMGWYRQAPGKERELVAGITTSGGSTYYADSVKGRFTISRDNAKKTVYLQMNSLKPEDTAVYYCAAYDYISSTYFLDDYWGQGTQVTVSS	low polyreactivity
QVQLVESGGGLVQAGGSLRLSCAASGSIFNYNAMGWYRQEPGKERVLVATINKRAGRTYYADSVKGRFTISRDNAKNTFYLQMNSLNPEETAVYYCAAYGRNYSIYDYWGQGTQVTVSS	high polyreactivity
QVQLVESGGGLVQAGGSLRLSCAASGSIFNYNTMGWYRQAPGKERELVADISWSGGSTYYADSVKGRFTISRDNAKNTVYLQMNSLKPEDTAVYYCAADFGLFPYVGTGYYFWGQGTQVTVSS	low polyreactivity
QVQLVESGGGLVQAGGSLRLSCAASGSIFNYYAMGWYRQAPGKEMELVAGITTSGGYTYYADSVKGRFTISSDNAKNTVYLQMNSLKPEDTAVYYCAAYDYISSTYFLDDYWGQGTQVTVSS	low polyreactivity
QVQLVESGGGLVQAGGSLRLSCAASGSIFNYYAMGWYRQAPGKERELVAAITYGGASTYYADSVKGRFTISRDNAKNTVYLQMNSLKPEDTAVYYCAADSFTRWVFYRSTVRGFGYWGQGTQVTVSS	high polyreactivity
QVQLVESGGGLVQAGGSLRLSCAASGSIFNYYGMGWYRQAPGKEREFVAAITSNGGTTYYADSVKGRFTISRDNAKNTVYLQMNSLKPEDTAVYYCADRPRYYWRGYDYWGLGTQVTVSS	high polyreactivity
QVQLVESGGGLVQAGGSLRLSCAASGSIFNYYVMGWYRQAPGKERELVAGIRWNGGSTYYADSVKGRFTISRDNAKNTVYLQMNSLKPEDTAVYYCAAQAWWGYYSRGPMDYWGQGTQVTVSS	low polyreactivity

Sequence	polyreactivity (PSR sort gate)
QVQLVESGGGLVQAGGSLRLSCAASGSIFNYYVMGWYRQAPGKERELVAGIRWNGGSTYYADSVKGRFTISRDNAKNTVYLQMNSLKPEDTAVYYFAAQAWWGYYSRGPMDYWGQGTQVTVSS	low polyreactivity
QVQLVESGGGLVQAGGSLRLSCAASGSIFPANAMGWYRQAPGKERELVAAISGRGGRTYYADSVKGRFTISRDNAKNTVYLQMNSLKPEDTAVYYCNKVGPLVGGVKYYYWGQGTQVTVSS	high polyreactivity
QVQLVESGGGLVQAGGSLRLSCAASGSIFPAYALGWYRPAPGKERELVAAITSSCGSTYYADSVKGRFTISRDNAKNTVYLQMNSLKPEDTAVYYCATVYPGDSYVYRFDYWGQGTQVTVSS	low polyreactivity
QVQLVESGGGLVQAGGSLRLSCAASGSIFPAYAMGWYRQAPGKEREFVAAISGTGGITYYADSVKGRFTISRDNAKNTVYLQMNSLKPEDTEVYYCAAPVYNRYYYWGQGTQVTVSS	low polyreactivity
QVQLVESGGGLVQAGGSLRLSCAASGSIFPDNVMGWYRQATGKERELVAAISRTGGSTYYADSVKGRFTISRDNAKNTVYLQMNSLKPEDTAVYYCNAKYRVPYAVGGDYGYWGQGTQVTVSS	high polyreactivity
QVQLVESGGGLVQAGGSLRLSCAASGSIFPDYALGWSRQAPGKESELVAAITRRDDSTYYADSVKGRFTISRDKAKNTVYLQMNSLKPEDTAVYYCNASALDPLYAKDDYWGQGTQVTVSS	low polyreactivity
QVQLVESGGGLVQAGGSLRLSCAASGSIFPDYAMGWYRQAPGKERELVAAIDTSTTDTYYADSVKGRFTISRDNAKNTVYLQMNSLKPEDTAVYYCAADAYDDPYGYWGQGTQVTVSS	high polyreactivity
QVQLVESGGGLVQAGGSLRLSCAASGSIFPDYAMGWYRQAPGKERELVAAITTSGGNTYYADSVKGRFTISRDNAKNTVYLQMNSLKPEDTAVYYCAAEITYSYPGSPRRRDYWGQGTQLTVSS	low polyreactivity
QVQLVESGGGLVQAGGSLRLSCAASGSIFPDYAMGWYRQAPGKERELVAAITWRDDSTYYADSVKGRFTISRDNAKNTVYLQMNSLKPEDTAVYYCNASALDPLFAKDDYWGQGTQVTVSS	low polyreactivity
QVQLVESGGGLVQAGGSLRLSCAASGSIFPEYAMGWYRQAPGKEREFVATIRWSGDSTYYADSVKGRFTISRDNAKNTVYLQMNSLKPEDTAVYYCAADQGRYGIIGWDDYWGQGTQVTVSS	low polyreactivity
QVQLVESGGGLVQAGGSLRLSCAASGSIFPFYAMGWYRHAPGKERELVASISSGGSTNYADSVKGRFTISRDNAKNTVYLQMNSLKPEDTAVYYCNAVVPYRWDTWFQVVYPESYDYWGQGTQVTVSS	low polyreactivity
QVQLVESGGGLVQAGGSLRLSCAASGSIFPFYAMGWYRQAPGKERELVAAINYSAGSTYYADSVKGRFTISRDNAKYTVYLQMNSLKPEDTAVYYCAKEVSAYEMDYWGQGTQVTVSS	low polyreactivity
QVQLVESGGGLVQAGGSLRLSCAASGSIFPFYAMGWYRQAPGKERELVAAISSRGGSTYYADSVKGRFTISRDNAKNTVYLQMNSLKPEDTAVYYCAARDYSIKVRLGYWGQGTQVTVSS	low polyreactivity
QVQLVESGGGLVQAGGSLRLSCAASGSIFPFYAMGWYRQAPGKERELVAAITYSGGSTFYADSVKGRFTISRDNAKNTVYLQMNSLKPEDTAVYYCNAVWRFGSSKYYYWGHGTQVTVSS	high polyreactivity
QVQLVESGGGLVQAGGSLRLSCAASGSIFPFYAMGWYRQAPGKERELVAVISTRGGSTYYADSVKGRFTISRDYAKNTVYFQMKSLKPEDTAVYYCAAKSVYRMGYWGQGTQVTVSS	high polyreactivity
QVQLVESGGGLVQAGGSLRLSCAASGSIFPFYAMGWYRQAPGKEREMLAANSDRGGSTYYADSVKGRFTISRDNAKNTVYLQMNSLKPEDTAVYYCNADRARFTYRATTYTGRYDYWGQGTQVTVSS	low polyreactivity
QVQLVESGGGLVQAGGSLRLSCAASGSIFPGNAKGWYRQAPGKERELVASINWSGGSTYYADSVKGRVTISRDNAKNTVYVQMNSLKPEDTAGYYCNARAFRQGHVEYDYWGQGTQVTVSS	low polyreactivity
QVQLVESGGGLVQAGGSLRLSCAASGSIFPGNALGWYRQAPGKERELVAVIDFSGASTYYADSVKGRFTISRDNAKNTVYLQMNRLKPEDTADYWGQGTQVTVSS	low polyreactivity
QVQLVESGGGLVQAGGSLRLSCAASGSIFPGNAMGGYRQAPGKERELVAAIRGGGSTNYADSVKGRFTISRDTAKNTVYIQMNSLKPEDTAVYYCAAQGILGSYDYWGQGTQVTVSS	low polyreactivity
QVQLVESGGGLVQAGGSLRLSCAASGSIFPGNAMGWYRPAPGKERELVAVIDFSGASTYYADSVKGRYTISRDNAKNTVYLQMNCLKPEVTADFWGQGTQVTVSS	low polyreactivity
QVQLVESGGGLVQAGGSLRLSCAASGSIFPGYAMGWYRQAPGKERELVATITWSGGSTYYADSVKWRFTISRDNEKNTVYLQMNCLKPEDTAVYYCNADSNWYYQWNYYGLYDYWGQGTQVTVSS	low polyreactivity
